Results as given in article PMC6138639, “The ZZ-type zinc finger of ZZZ3 modulates the ATAC complex-mediated histone acetylation and gene activation” (Nature Communications, 2018).

Tests used:
[1] = molecular target: T1, H3K4ac peptide of the tryptophan fluorescence and NMR titration experiments; assay: tryptophan fluorescence; conditions: chain shown with the change; H3K4ac (1–12) peptide; triplicates
T1 chain: ARTKQTAR

[2] = molecular target: T2, unmodified H3 peptide of the tryptophan fluorescence and NMR titration experiments; assay: tryptophan fluorescence; conditions: chain shown with the change; H3 (1–12) peptide; triplicates
T2 chain: ARTKQTARKSTG

B1: ZZZ3 ZZ domain (aa 800–903), GST cleaved, Q8IYH5 F821A (protein)
chain: KLKKQKLQQMQAESGFVQHVGAKCDNCGIEPIQGVRWHCQDCPPEMSLDFCDSCSDCLHETDIHKEDHQLEPIYRSETFLDRDYCVSQGTSYNYLDPNYFPANR
[1]
  Kd: 294 µM
[2]
  Kd: 271 µM
